Here are results for 19 molecules from patent US8299210 (Sanofi, dated 2012).

Where no end group is shown, it is not given here. The star is where a group is joined. Biotin = O=C1N[C@H]2[C@H](CS[C@H]2CCCCC(=O)*)N1; AEEA = NCCOCCOCC(=O)O

The labels stand for the following.
B1: synthetic biotinylated peptide pp26 9 n (Seq # 197588-1) (peptide)
peptide: {Biotin-AEEA}-RSNVIPLNEVWYDTGWDRPHRSRLSIDDDA
notes: also called pp26 peptide 9; pp26 clone 9
B2: synthetic biotinylated peptide pp26 5 c (Seq # 197557-1) (peptide)
peptide: RSSHCRHRNCHTITRGNMRIETPNNIRKDAK(Biotin)
modifications: cysteine pairing not given here
B3: gurmarin variant # 9 (seq # 194259) (peptide)
chain: MHHHHHHSGSSSGSGCVKKDELCARWDLVCCEPLECIYTSELYATCGSGSSGSS
B4: gurmarin variant # 16 (seq # 194533) (peptide)
chain: MHHHHHHSGSSSGSGCVKKDELCARWDLVCCEPLECIYTSELYATCGSGSSGSS
B5: gurmarin variant # 12 (seq # 194297) (peptide)
chain: MHHHHHHSGSSSGSGCVKKDELCVFYFPNCCEPLECRWVNDNYGWCGSGSSGSS
B6: gurmarin variant # 11 (seq # 194328) (peptide)
chain: MHHHHHHSGSSSGSGCVKKDELCNWVTPMRCEPLECLGHGLGYAYCGSGSSGSS
B7: gurmarin variant # 14 (seq # 194479) (peptide)
chain: MHHHHHHSGSSSGSGCVKKDELCTTASKSCCEPLECKWTNEHFGTCGSGSSGSS
B8: gurmarin variant # 15 (seq # 194511) (peptide)
chain: MHHHHHHSGSSSGSGCVKKDELCSQSVPMCCEPLECKWFNENYGICGSGSSGSS
B9: gurmarin variant # 10 (seq # 194264) (peptide)
chain: MHHHHHHSGSSSGSGCVKKDELCELAVDECCEPLECFQMGHGFKRCGSGSSGSS
B10: synthetic biotinylated peptide gurmarin 15 n (Seq # 194511-1) (peptide)
peptide: {Biotin-AEEA}-SGCVKKDELCSQSVPMCCEPLECKWFNENYGICGS
modifications: ends and bridges not checked
notes: also called gurm 15n; gurmarin peptide 15
B11: synthetic biotinylated peptide gurmarin 10 n (Seq # 194264-1) (peptide)
peptide: {Biotin-AEEA}-SGCVKKDELCELAVDECCEPLECFQMGHGFKRCG
modifications: ends and bridges not checked
notes: also called gurm 10n
B12: synthetic biotinylated peptide pp26 15 n (Seq # 198000-1) (peptide)
peptide: {Biotin-AEEA}-RSWRDTRKLHMRHYFPLAIDSYWDHTLRDA
notes: also called pp26 peptide 15; pp26 clone 15
B13: synthetic biotinylated peptide gurmarin 9 n (Seq # 194259-1) (peptide)
peptide: {Biotin-AEEA}-SGCVKKDELCARWDLVCCEPLECIYTSELYATCG
modifications: cysteine pairing not given here
notes: also called gurm 9n; gurmarin peptide 9
B14: synthetic biotinylated peptide gurmarin 19 n (Seq # 194737-1) (peptide)
peptide: {Biotin-AEEA}-SGCVKKDELCELAIDECCEPLECTKGDLGFRKCG
modifications: ends and bridges not checked
notes: also called gurm 19n
B15: synthetic biotinylated peptide pp26 5 n (Seq # 197557-2) (peptide)
peptide: {Biotin-AEEA}-RSSHCRHRNCHTITRGNMRIETPNNIRKDA
modifications: cysteine pairing not given here
B16: PP26 variant # 5 (seq # 197557) (peptide)
chain: MGRGSHHHHHHARSSHCRHRNCHTITRGNMRIETPNNIRKDANAPKASAI
B17: PP26 variant # 6 (seq # 197596) (peptide)
chain: MGRGSHHHHHHARSTMNTNRMDIQRLMTNHVKRDSSPGSIDANAPKASAI
B18: PP26 variant # 14 (seq # 197825) (peptide)
chain: MGRGSHHHHHHARSWQPEVKMSSLVDTSQTVGAAVETRTTDANAPKASA
B19: PP26 variant # 15 (seq # 198000) (peptide)
chain: MGRGSHHHHHHARSWRDTRKLHMRHYFPLAIDSYWDHTLRDANAPKASAI

As a reminder, the Kd is the constant that tells how readily two partners part at equilibrium. A lower Kd goes with higher affinity. For orientation: koff means the rate constant with which the complex falls apart. Read a low koff as slow dissociation. One may read the kon as the second-order rate constant of association.

The target of the first assay is T1, Pertussis toxin (PT) (Bordetella pertussis, UniProt P04977 35-269; P04978 28-226; P04979 29-227; P0A3R5 43-152; P04981 35-133).
T1 construct: mature; also called purified PT; biotinylated PT
Briefly: BIAcore 2000, 2.5-100 nM peptide over PT amine coupled to a CM5 chip (6000 RU), HBS/EP, room temperature. In general terms: SPR reads the build-up and loss of mass on a sensor chip optically.
The molecule B1 registered a Kd of 7.5 nM, a koff of 0.001 s⁻¹ and a kon of 130000 M⁻¹ s⁻¹.

In a further assay the target is T1, Pertussis toxin (PT). Put plainly: ~200 pmol peptide on streptavidin sepharose with 100 pmol purified PT, gel and silver staining.
Consider B2, for which the binding result is listed as “binds”.

For another assay, the target named is T1, Pertussis toxin (PT). Briefly: 35S-labelled, His-tag purified free peptide (TNT expressed) on biotinylated PT on streptavidin magnetic beads, scintillation counting (test 1).
Experimental: (§1) By this measure, those bated with biotinylated PT immobilized on streptavidin-magnetic beads for 1 h at RT. The beads were washed 3× with HBS-buffer and then resuspended in water and analyzed by liquid scintillation counting. In control experiments each candidate was incubated with streptavidin beads only (without PT).
B3: the binding result is on record as “binds”.
As for B4, the binding result is given as “binds”.
Still for that read-out and setting: next, B5: “binds”; B6: “binds”; B7: “binds”.
Regarding B8, the binding result is given as “binds”.
As to B9, the binding result was “binds”.

The target of the next assay is T1, Pertussis toxin (PT). Briefly: 20 pmol sepharose-immobilized peptide with 100 pmol (500 nM) PT, bound PT quantified by gel, 1:1 ratio assumed.
Take B10: the “Fraction of binding active peptide” value was over 50%.
With B11, the “Fraction of binding active peptide” value was over 5%.
Consider B12, for which the “Fraction of binding active peptide” value was over 12.5%.
Same read-out and setting: next, B13: over 12.5%.
Still for that read-out and setting: next, B14: over 5%.
Still for that read-out and setting: next, B1: over 50%; B15: over 5%.

Another assay addresses T1, Pertussis toxin (PT). Put plainly: 35S-labelled, His-tag purified free peptide (TNT expressed) on biotinylated PT on streptavidin magnetic beads, scintillation counting (test 1). This is another data set of the same source.
Experimental: as §1
As for B16, the binding result is “binds”.
On the same count and under the same terms, next, B17: “binds”.
As for B18, the binding result was “binds”.
Regarding B19, the binding result was “binds”.
